Experiment: soluble on expression in E. coli; label from the status in PepcDB or PDB records

Sequence | soluble on expression in E. coli
MGSDKIHHHHHHMSEGCAFAYPFIFVGANMKKIAFIGECMIELNGKPFGEMWQSYGGDTLNSATYLSRMSSPNDIQVYYVSALGSDNLSEQMRMHWQADGVNTDWVLKDENHQPGLYLIQLDEQGERTFLYWRNQSAAHYMVQHHDFSQVLSALEQVDMIYLSGISLAILPKNDRTFLLEQLIKLAKKGVQISFDSNFRPKLWDSFQEAQDCYLQLLPCVSLALVTFDDEQLLWNDTNEPATLTRLHQIGIPKVVVKCGRNGAIFSDSQTSQYGQVVPKPISNVVDTTSAGDSFNAGFLNGYLRNKPLDICCRQGNYVAGIVIQHKGAIIDKHATSHLQSEFN | not soluble
MEEIMLFPLSSVVLPEGKMKLRIFEPRYQRMVAQCSKTGSGFGLCLFDSKSNKNANELSEFGTLVKIVDFETLSDGLLGITVVGIRRFAIRKVRVEYDGLRIATVQWFPDWPSQELLERERFLGEQLQEVYRQFPQIGELHSLCFFDDASWVCQRWLELLPLSKGQFDVLVGQRDCHAALAFLQRTIESHLDT | not soluble
MGSDKIHHHHHHMTEGGFDPALLVQSWPKPSKPRPIVTFGSGSIVGDAHFPAYRKAGFPIAGLYDPDQAKATTLADKWGVTAFRSVGEAAAVQDAIFDLATPPGRHAEILKDLPDGAVALIQKPMGNYLGEATEILEICRAKNLKAAVNFQLRFAPMMLALKDAIAKGWLGEIVDFDAWLALATPWELWEFLLKAPRVEIAMHSIHYLDLIRQLLGDPKGVHAKTLGHPNHKVAQTRTSAILDYGDTVRCALSINHDHKFGRRHQACEFRICGTEGAAYLKLGLNLDYPRGEPDILEIHPKGGTDWIAVPLAGEWFPDAFVGRMANVQRFASGEDDELVSSVEDAWSTMALVEAAYKSSAAPATLIAERP | not soluble
MVQTYRSPVRIYKHPFEIVMAAYEMRFPTCPQIPIFVGSEVTYEYKSVDGAEWVIDRKCQLNVEAPYLVKKIAGVDYVYFSQKNSLDRRKRTLDIEATNISFSSRINVKENCTYYVHAENENWTCFEQSASLDVKNFFGLESAVEKLAVRQYGANLAKGKEILEFFIEELLKKTTHIERFRDADQEETTSATDSAIEMKELSDGDAVLVNDRPPMLAAETDEMRTARATASFDDACRVCMIIYCRIFIIISSYFFNFPADSKLEAEYIRRFLGQLSPLEESRLCEIKYSLQAHHKGKLPNDAHLLRFLRARDFDVAKAKDMVHASIIWRKQHNVDKILEEWTRPTVIKQYFPGCWHNSDKAGRPMYILRFGQLDTKGMLRSCGVENLVKLTLSICEDGLQRAAEATRKLGTPISSWSLVVDLDGLSMRHLWRPGVQCLLKIIEIVEANYPETMGQVLVVRAPRVFPVLWTLISPFIDEKTRKKFMVSGGSGGDLKEELRKHIEEKFIPDFLGGSCLTTNCGLGGHVPKSMYLPVEEQEGASSSEDPLHSTYTSTATWRGYPVEVVIPIETAGCVLTWDFDVLKNDCEFSLYFSTEKIEQPAVRDGAQSPTTILNPVEMVSAAIGGASHQHPDLQCAPELKIGTPQLRLEEKAVVFQEGDSMQGSHYCSRAGTYIMQWRVPETAAGHSSTFDFGSHKCRLIYYYEILNSENFRGSVASLESCRSSSFSSIAPPTPPTPGTPRNP | not soluble
MAIQFELYKSPARKDEEDKELYHARVVNFQHIDTDYLAKEIQQATSLTEGDVKAVLESLSHFMGSRLREGERVHLDGIGYFQVKLNSLEPITSPKLKANQMKLKANIGFKADKKLRSSVSVVKVERSKLKLHSVPRSNEEIDRLLTAYFSNNQILTRSDFQGLCKLTLTTAARHIKRLKEEKKLQNINTRQSPVYVPMPGYYGKPEVEDTVK | not soluble
MGKRIAFWFEFASTYSYLSAMRIERAAADLGVTIAWEPFLLGPIFAAQGWTSSPFNLFPAKGRYMWRDMERLCARQGLPLTRPDPFPQNGLPAARLAMVAREMGHIAPFVRAVYAAQFGRGLVISDPQVLAECWAEAGLPPEAMEQAKSPEIKAALFAQGERAAALDLFGAPSFVVGEEVFWGDDRLDQALALAAQS | soluble
MISAHVWADAQRLWDFQQMGHEPHPCSVAIGLGSHDLGVAETTAELYHRGMAPVIVFTGATSRTTHERMPRGEAEHYRERAVELGVPERAILVEPNARNTGENIRLSRALLEDLGMPVTSVLLVSKPYEERRAYATARKLWPNVEWVCVSTSMTLPDYVKSIGDARLVIDMLVGAQQRLMVYPRQGFMIKQEIPEPIMTAYEHLRGHGFTSRLVPETAEQTLEHHHHHH | soluble
MSEPSNLVSKFQKLRVEASKIQNEFKEKPSYTLFKETLDISEKLLEKQFEFNDEMKQIQQNVMSELKSVKKELKQATSIKDLLEILEIIQKIFKKQDEFQQVQENQNKSIENLNSELKTVKAELNETKKQQESQEKLIDNSDKNLKLILESILKFQKSQDQIMMKIMEGSAVQDVPLGTVELTKIDPFFEILVIWTESCGIFASENHWKLRVCGSDTIRHIKLRINSLAKVDISSFRMVLRGKLLEDHHSLAYYNIQEGALIWLYSHLKMSETSSLMSQFQKLRVETSKIYNEFTEMVKNETSDMKKQQETQILKEQDEFQDEIRQEFLKIQENENKLIEKLMSELKTLKTELNETKNQISDLHNATKQQESQAQSMNDLLTKNSNNNLKMMLKIQEGQDRIMMKIQEGAAVKDVPIESGELAKNDSMFKIFVSWSIPGGIFVSENRRKLPVYESNTIRQIKLRINSLKSQDQMKIQEGEFAKKIEESVAPVKTPLEAPIEDKKLDNKKPFFKITVHLHGGPNASVYGRKYNHLVFDAHTIRDLKVRIKALIMQSSPIKLRTELYRLFFVYTLLEDHQTIAYYKFKKAQHLT | soluble
SAAPMSNVDEIRDRVILGEFGVKNVHTTDYPGNYPGYDDTWDFEKFKKNFRIEIISSDENTLEFDMIGIDAAIANAFRRILLAEVPTMAIEKVFIYNNTSIIQDEILAHRLGLVPIKADPRLFEYRNSEDQEGTEIDTIQLQLKVKCTRNPRAPKDSSDPKELYLNHMIYSGDIKWLPIGNQADVFADAKIGPVHGDILLAQVRPGQELDIVMHCVKGIGKDHAKFSPVATASYRLLPEITLLQTIEGEQAERLKRCFSPGVIELENVNGRKVAKVVNSRLDTCSREVLRHDDLKSLVKLGRVRDHFIFSVESTGILPPDVLVTEAINVLMSKCQKFLTELEATEMD | soluble
MGSDKIHHHHHHMLAGFAAAKAPEIDPALVDTLVAQIMQQADRHAEQSQKPDGQAIRNDAVRRLQTLEVLKNRALKEGLDKDKDVQNRFKIAEASFYAEEYVRFLERSETVSESALRQFYERQIRMIKLQQVSFATEEEARQAQQLLLKGLSFEGLMKRYPNDEQAFDGFIMAQQLPEPLASQFAAMNRGDVTRDPVKLGERYYLFKLSEVGKNPDAQPFELVRNQLEQGLRQEKARLKIDAILEENGVKP | not soluble
MGSDKIHHHHHHPEKKVATSVPAPQKMDGEQLFEDMQLGGVVNFLAFRQAVAGYNLIKQKSKSILTLIDFTKPSTEKRLFVFDMEQKKMLYSSVVSHGKNSGENYATSFSNEVGSYKSSLGFYLTGNTYQGRNGYSLLLDGLEKGINDRARERAIVVHGAAYANPSVCKSGRLGRSFGCPALPQALTKPIINTIKGGSVLFIYANNKEYMAKSSILPNQTSQELFTEACESEQTVSVHL | not soluble
MGSDKIHHHHHHMDTSSREHDLVIYGATGFVGRLIAVYIAEHAPAGMRVGLAGRSNSRLEAVRAELPAAAHGWALIEASSEDADSIAALAANTRVLFTTVGPYAKHGLPVVEACARAGTHYADLAGEVFFIREAIDCYDALARTSGARIVHSCGYDSVPSDLAVLLLHQAAEADGAGGLVEVQLEARARAGISGGTLESMRGQLDAMRSSTALRSLAADPYALSPDRTREPTTPQPPDAGPVRRSADGTWTAPFIMAPFNTRIVRRSNALQRWAYGRSLQYGEVMGVAPGPAGAVIPRAMALGLRAFTGAMAFPPTRKVLDRFLPAPGTGPSTSTQRAGWFHSQVTARTEDGQRYQAIAAGPGDPGYAATAVMAGETALALALDGDRLPTAKGSLTPATALGNVLIQRLRAAGHTYQVSKLA | not soluble
MSLSDSENGGSKTAILCNDLADSYLESYPTVTLEDGVTRTYHNGVYQECRNKYIINNRMMDIAEDMGIVLTPKQIQDALEIVRNKTPFTESKTPINLIPVGNGVLDINTMELSDYSPETVLLTKFPRDYNPSAATPSKFMEMLNTTFDGSEEQIKLVQEMFGYCFLRSYFLEVIFFLIGNGRNGKTTLLSILGALLGGEESGHISSLSFKDLSEPKNENMLCDLYGRYANICGDTGKHKIKETDYIKKVTGNDFVRARKLYKDSFNFKSFAKVILAFNQLPEVDDFSDGFKRRIRIIEFNHKFEDGAGANKNIEAEITGDEEEMEGIFLWAMEGLKRILENNSFSDKRSIVSRGMEYARKSNPMHYFVRECIVESPGHFVNKADLIEKYVEYAEYNKMPQLTPQAFKKGLIAECTDISINTFEKRDQTKTGRPFGFMHIDIDLESWKKHTGKADNASPVEPKEDSKQTQFKELEIQIATTDEEIRKVAEDMASTASEGHHHHHH | soluble
LSSPADSYNEGVKLQPQEISPPPTANLDRSNDKVYENVTGLVKAVIEMSSKIQPAPPEEYVPMVKEVGLALRTLLATVDETIPLLPASTHREIEMAQKLLNSDLGELINKMKLAQQYVMTSLQQEYKKQMLTAAHALAVDAKNLLDVIDQARLKMLGQTRPH | soluble
GHMAKHQIGVIGLAVMGKNLALNIESKGYSVAVYNRLREKTDEFLQEAKGKNIVGTYSIEEFVNALEKPRKILLMVKAGAPTDATIEQLKPHLEKGDIVIDGGNTYFKDTQRRNKELAELGIHFIGTGVSGGEEGALKGPSIMPGGQKEAHELVRPIFEAIAAKVDGEPCTTYIGPDGAGHYVKMVHNGIEYGDMQLIAEAYFLLKHVLGMDAAELHEVFADWNKGELNSYLIEITADIFTKIDEETGKPLVDVILDKAGQKGTGKWTSQNALDLGVPLPIITESVFARFLSAMKDERVKASKVLAGPAVKPFEGDRAHFIEAVRRALYMSKICSYAQGFAQMKAASEEYNWNLRYGDIAMIFRGGCIIRAQFLQKIKEAYDRDPALSNLLLDSYFKDIVERYQDALREIVATAAMRGIPVPGSASALAYYDSYRTAVLPANLIQAQRDYFGAHTYERVDKEGIFHTEWLK | soluble
GDWLDLNTTSSVETGQAIVTLDDAQIALNGIYRLASGHSYYGDNYWYYGDCRAADVQARITKGDGKRVSPYYEYNVLASDNLNIVLPWNTVYKVIRQTNNLIQKIESGSIQSSDTKELNRIKSEALVMRGLSLFNLTRLFGMPYTNDKGASLGVPIETSPSDPTHKPSRSTVAQCYEQVVSDMSNALSGLRQETSNGYINYWAAQALLSRVYLNMGEYQKAYDAATDVIKNNGGRYQLYSYEEYPNVWGQDFQSESLFELYITLSEPSGGTGGEGAPMVYANEATVDWNNLILSEDFLNLLNEDPKDVRHCLTKESVIENNTGLPAAAMHEKVYLAKFPGKTGDDPKTNNICIIRLSEVYLNAAEAGLKKGTDIEEAQGYLNDIISRRTTDTSQQVSTETFTLDRILKERRKELVGEGEVFYDYLRNGLAIERKGSWHLETLKASNAQKIEATDLRIALPIPQSEIDANPNIQQNPR | soluble
SGMYKIILNQTARYFAKFAPDNEQNILWGLPLQYGWQYRTGRLADPTRRTNCGYESGDHMCISVDSWWADLNYFLSSLPFLAAVDSGVMGISSDQVRLLPPPKNERKFCYDVSSCRSSFPETMNKWNTFYQYLQSPFSKFDDLLKYLWAAHTSTLADNIKSFEDRYDYYSKAEAHFERSWVLAVDHLAAVLFPTTLIRSYKFQKGMPPRILLNTDVAPFISDFTAFQNVVLVLLNMLDNVDKSIGYLCTEKSNVYRDHSESSSRSYGNNS | not soluble
